Entries after “also recorded” stand apart in the source; their conditions may differ.
Columns and labels:
[1] = test system: BAX; experiment: FRAP-GUV pore-forming activity of BAX, 70-kDa F-dextran; assay type: biochemical, mouse; parameters: FRAP pore-forming activity / FRAP pore-forming activity, average / p (FRAP-70k-p), Average: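 unitless ratio D/D0 relative to diffusion coefficient after Triton X-100 disruption of GUVs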
Procedure: (§1) Briefly, GUVs were incubated with the proteins of interest over a period of time (Fig. 2c), followed by photobleaching within individual GUVs. A series of fluorescent images were collected over time after the photobleaching and then analyzed to yield the diffusion coefficients of Fluor molecules (including FITC-labeled 70-kDa, and Alexa-647-labeled 10-kDa probes) using the theoretical approach detailed in the “Methods” section. As Fluor molecules are homogeneously dispersed in the solution (outside and inside of GUVs) before the incubation with BAX and activators, it is reasonable to expect that the larger the induced pore area on the surface of a GUV, the greater the diffusion coefficient. Thus, the diffusion coefficient is directly related to the pore-forming activity of activated BAX. As the pore-forming activity is proportional to the concentration of BAX[18], we fixed the total amount of added BAX in all of the measurements below (see the “Methods” section).
(§2) Full-length BAX and variants were prepared as previously described[18],[22],[35]. Mouse BAX was cloned into pTYB1 vector (New England Biolabs, Inc.), resulting pTYB1-BAX construct. The pTYB1-BAX construct encoding a fusion protein of BAX with chitin-binding peptide was separated by a self-cleavable intein tag to obtain a full-length BAX. Wild-type BAX has two native cysteine residues at 62 and 126. Cysteine-free construct (C62S/C126S) was used to prepare single-cysteine BAX variants for conjugating fluorescence probes (e.g., BAX136C in Fig. 1d). Point mutations of recombinant BAX were generated using a QuikChange mutagenesis kit. Proteins were expressed in E. coli (ER2566) strain (New England Biolabs, Inc.) and purified without detergent. Bacterial cultures were grown at 37 °C in LB medium containing 0.1 g/L ampicillin to reach an OD600 of 1.0. BAX expression was induced by addition of 0.3 mM IPTG at 30 °C for 6−8 h. The cells were harvested by centrifugation and resuspended in ice-cold lysis buffer (20 mM Tris–HCl, pH 7.0, 500 mM NaCl and 1 mM PMSF). The resuspended pellet was sonicated on ice for 30 min, followed by centrifugation at 12,800 × g for 50 min. […] The resins were incubated in a pre-equilibrated buffer (20 mM sodium phosphate, pH 8.0, 100 mM NaCl, 60 mM dithiothreitol (DTT)) for 48 h. Proteins were eluted from column and further purified by a SEC using a HiLoad 16/60 Superdex 75 column (GE Healthcare) pre-equilibrated in PB buffer (20 mM sodium phosphate, pH 7.4, 100 mM NaCl). Purified proteins were confirmed by SDS–PAGE with Coomassie blue staining. Protein concentration was determined using absorption spectroscopy at 280 nm.
(§3) All lipids used were purchased from Avanti Polar Lipids. […] Texas Red 1,2-dihexadecanoyl-sn-glycero-3-phosphoethanolamine (TR-DPPE) (Invitrogen) of 0.05% was added to the lipid mixture for virtualization of GUV[18],[26],[27]. GUVs were prepared with the gel-assisted swelling on a polyvinyl alcohol (PVA) gel[39]. A 5% (w/w) solution of PVA (MW 145,000) was prepared by stirring PVA in ddH2O while heating at 90 °C. PVA solution was spread on a microscope coverslip (18 × 18 mm, Matsunami, Japan) and then dried at 50 °C. Lipid mixture (1 mg/mL) dissolved in chloroform were spread on the dry PVA film and placed under vacuum for 30 min to evaporate the solvent. Lipids were rehydrated for 1 h in PB buffer. The resulting GUVs were transferred to an Eppendorf tube using blunt tips.
(§4) FRAP measurements were performed as described previously. […] All reactions were at room temperature and the final volume was 200 μL.

[2] = test system: BAX; experiment: FRAP-GUV pore-forming activity of BAX, 10-kDa F-dextran; assay type: biochemical, mouse; parameters: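 unitless ratio D/D0 relative to diffusion coefficient after Triton X-100 disruption of GUVs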; conditions: 10 kDa F-dextran
Procedure: as §1, §2, §3, §4

B1: EEE (protein)
chain: MAHAGRTGYDNREIVMKYIHYKLSQRGYEWDAGDVGAAPPGAAPAPGIFSSQPGHTPHPAASRDPVAREEPLQTPAAPGAAAGPALEPVPPVVHLTLRQAGDDFSRRYRRDFAEMSSQLHLTPFTARGRFATVVEELFRDGVNWGRIVAFFEFGGVMCVESVNREMSPLVDNIALWMTEYLNRHLHTWIQDNGGWDAFVELYGPSMRPLFDFSWLSL
modifications: Pacific Blue (maleimide) on the native cysteine 158; left off: His6, C-terminal, state not stated
In the case of B1, the “pore-forming activity / effect on BAX-induced membrane pores on GUV (in words)” value ([1]; 10- and 70-kDa F-dextran, BAX 1 µM, BimBH3 2 µM, BCL-2 1 µM, ABT-199 30 µM, room temperature, Fig. 2c) is reported as “neither BAX nor EEE, in the absence of pro-apoptotic BimBH3, is able to induce large membrane pores on GUV; also recorded: the pore-forming ability of BAX is clearly inhibited by the presence of EEE”, the “FRAP pore-forming activity, average” value ([1]; 70 kDa F-dextran, mean of trials) is reported as 0.0009376 and the FRAP pore-forming activity ([1]; 70 kDa F-dextran, trial1) is reported as 0.000495. The FRAP pore-forming activity ([1]; 70 kDa F-dextran, trial2) was 0.0006601, the FRAP pore-forming activity ([1]; 70 kDa F-dextran, trial3) was 0.000495 and the FRAP pore-forming activity ([1]; 70 kDa F-dextran, trial4) was 0.0009901. It also gave an FRAP pore-forming activity ([1]; 70 kDa F-dextran, trial5) of 0.0008251, an FRAP pore-forming activity ([1]; 70 kDa F-dextran, trial6) of 0.000495 and an FRAP pore-forming activity ([1]; 70 kDa F-dextran, trial7) of 0.0008251. The FRAP pore-forming activity ([1]; 70 kDa F-dextran, trial8) was 0.000495, the FRAP pore-forming activity ([1]; 70 kDa F-dextran, trial9) was 0.00132 and the FRAP pore-forming activity ([1]; 70 kDa F-dextran, trial10) was 0.0008251. The FRAP pore-forming activity ([1]; 70 kDa F-dextran, trial11) was 0.0008251, the FRAP pore-forming activity ([1]; 70 kDa F-dextran, trial12) was 0.0008251 and the FRAP pore-forming activity ([1]; 70 kDa F-dextran, trial13) was 0.001155. It also gave an FRAP pore-forming activity ([1]; 70 kDa F-dextran, trial14) of 0.0009901, an FRAP pore-forming activity ([1]; 70 kDa F-dextran, trial15) of 0.002475 and an FRAP pore-forming activity ([1]; 70 kDa F-dextran, trial16) of 0.000495. For the same molecule, the FRAP pore-forming activity ([1]; 70 kDa F-dextran, trial17) was 0.0006601, the FRAP pore-forming activity ([1]; 70 kDa F-dextran, trial18) was 0.000495 and the FRAP pore-forming activity ([1]; 70 kDa F-dextran, trial19) was 0.002475. For the same molecule, the FRAP pore-forming activity ([1]; 70 kDa F-dextran, trial20) was 0.0008251, the FRAP pore-forming activity ([1]; 70 kDa F-dextran, trial21) was 0.0006601 and the FRAP pore-forming activity ([1]; 70 kDa F-dextran, trial22) was 0.00132. For the same molecule, the “FRAP pore-forming activity, average” value ([2]; mean of trials) was 0.001715, the FRAP pore-forming activity ([2]; trial1) was 0.003333 and the FRAP pore-forming activity ([2]; trial2) was 0.0005263. The FRAP pore-forming activity ([2]; trial3) was 0.001579, the FRAP pore-forming activity ([2]; trial4) was 0.002807 and the FRAP pore-forming activity ([2]; trial5) was 0.002982. For the same molecule, the FRAP pore-forming activity ([2]; trial6) was 0.001754, the FRAP pore-forming activity ([2]; trial7) was 0.0005263 and the FRAP pore-forming activity ([2]; trial8) was 0.002807. For the same molecule, the FRAP pore-forming activity ([2]; trial9) was 0.0005263, the FRAP pore-forming activity ([2]; trial10) was 0.0005263 and the FRAP pore-forming activity ([2]; trial11) was 0.0005263. For the same molecule, the FRAP pore-forming activity ([2]; trial12) was 0.001053, the FRAP pore-forming activity ([2]; trial13) was 0.0005263 and the FRAP pore-forming activity ([2]; trial14) was 0.002632. For the same molecule, the FRAP pore-forming activity ([2]; trial15) was 0.001053, the FRAP pore-forming activity ([2]; trial16) was 0.002632 and the FRAP pore-forming activity ([2]; trial17) was 0.001404. It also gave an FRAP pore-forming activity ([2]; trial18) of 0.003684.
